According to article PMC7954794, “Protein context shapes the specificity of SH3 domain-mediated interactions in vivo” (Nature Communications, 2021):

B1: YOR284W (protein, UniProt Q12134 1-243, looked up)
Protein HUA2: MQQTKFGKMYLDHDSVVEYSEDEIVEADRITLGYKKRLSMIENQMRHLLEDFSLDVQQIEPILADLQKYYDAFLQLLQKRNKSLQCKRSTHQPVPSPMNSQTSTNAKVNLSGKLMKFQLNSVQKFDEENILRILQNKIEFEHYFQIDKGKKQKVLLLAVYQCLNGPTRLHKVLNIEGIIHNNSIRTILGKQVSSSKWTVFLYDVKLVLLAHRQDVPNLETSKMIVRYGDLFPCALYFKDHTAY
B2: YGR178C (protein, UniProt P53297 1-722, looked up)
PAB1-binding protein 1: MKGNFRKRDSSTNSRKGGNSDSNYTNGGVPNQNNSSMFYENPEITRNFDDRQDYLLANSIGSDVTVTVTSGVKYTGLLVSCNLESTNGIDVVLRFPRVADSGVSDSVDDLAKTLGETLLIHGEDVAELELKNIDLSLDEKWENSKAQETTPARTNIEKERVNGESNEVTKFRTDVDISGSGREIKERKLEKWTPEEGAEHFDINKGKALEDDSASWDQFAVNEKKFGVKSTFDEHLYTTKINKDDPNYSKRLQEAERIAKEIESQGTSGNIHIAEDRGIIIDDSGLDEEDLYSGVDRRGDELLAALKSNSKPNSNKGNRYVPPTLRQQPHHMDPAIISSSNSNKNENAVSTDTSTPAAAGAPEGKPPQKTSKNKKSLSSKEAQIEELKKFSEKFKVPYDIPKDMLEVLKRSSSTLKSNSSLPPKPISKTPSAKTVSPTTQISAGKSESRRSGSNISQGQSSTGHTTRSSTSLRRRNHGSFFGAKNPHTNDAKRVLFGKSFNMFIKSKEAHDEKKKGDDASENMEPFFIEKPYFTAPTWLNTIEESYKTFFPDEDTAIQEAQTRFQQRQLNSMGNAVPGMNPAMGMNMGGMMGFPMGGPSASPNPMMNGFAAGSMGMYMPFQPQPMFYHPSMPQMMPVMGSNGAEEGGGNISPHVPAGFMAAGPGAPMGAFGYPGGIPFQGMMGSGPSGMPANGSAMHSHGHSRNYHQTSHHGHHNSSTSGHK
B3: YNL094W (protein, UniProt P53933 1-587, looked up)
Phosphatidate phosphatase APP1: MNSQGYDESSSSTAATSGPTSGDPRMGKKQRFMNLIRTTKDVYIPNLTSSISQKTMDGIRSTTNSFEGYNDLPMELPHNTTITYFPTYTTTNLVDPDGLSAPRKDFETTVRCAVSYPGNPTSRRNRWLLSLCKQYLRTGTAEADVAPVVPPHLEEDSGDLNDSQSSIESSLSSKSENRYSHMGIQEEDVLNERIQGFLSKKVPNTPVVVDLLPKDKLRGDTASFFGTTDSYGNLLIKAETDFLPSKINITLDTPIEGHADPISETFPANYVSPYGIGLISDIDDTIKHTGVTGDRRSMFRNVFIHDVQSWVIDGVPLWYKTLHDVADVDFFYVSNSPIQTFTLLKQYICANFPPGPIFLKQYSGNFFSTIMTSSANRKIQPIANILKDFPKKKFILVGDSGEHDLEAYTTTALQFPNQILAIYIRCCSNSMSDVPSHDEEVMNEVNNIIELQQRPMQMTKSTVRTRRRPPPPPIPSTQKPSLTEEQTESIRMSRRNKDENNAKRVAPPPLPNRQLPNLDANTYYVPSSQNDYGMYGAFMDKKADEWKRRVMDSIQKLSNQDTTLMFFSDPALSLEDSIRRIREKYSN
B4: YJR083C (protein, UniProt P47129 1-309, looked up)
Assembly-complementing factor …: MSEDQRVISQPIELHKLSIVDKHSQGQQQQPHQKQHEVQPESKSPRVTTPLKPKRLAIPISSPQRSTTNQSPVSDHASPISTDQDLIYKLAAKHREINELSFKLEVAQKELKQLELQFKDTLPRNGQQKLGNQNPSEYLSTFTKRIQQTFVDVNNSPNMLKGKKSINDFFSKPNNNVNSNINNTLPNRKPNPPPNRSQRMQNIAPSRSSESTPTSGPPLLPPRNTMKNANTTATAGENTPFLQRILNKFNQMNMEEDEFDDLLEKRKSKKDHYYIKENLGYEYDEVRSEDEDDEEFEPMGDIPVHLFKR
B5: YAR042W (protein, UniProt P35845 1-1188, looked up)
Oxysterol-binding protein …: MEQPDLSSVAISKPLLKLKLLDALRQGSFPNLQDLLKKQFQPLDDPNVQQVLHLMLHYAVQVAPMAVIKEIVHHWVSTTNTTFLNIHLDLNERDSNGNTPLHIAAYQSRGDIVAFLLDQPTINDCVLNNSHLQAIEMCKNLNIAQMMQVKRSTYVAETAQEFRTAFNNRDFGHLESILSSPRNAELLDINGMDPETGDTVLHEFVKKRDVIMCRWLLEHGADPFKRDRKGKLPIELVRKVNENDTATNTKIAIDIELKKLLERATREQSVIDVTNNNLHEAPTYKGYLKKWTNFAQGYKLRWFILSSDGKLSYYIDQADTKNACRGSLNMSSCSLHLDSSEKLKFEIIGGNNGVIRWHLKGNHPIETNRWVWAIQGAIRYAKDREILLHNGPYSPSLALSHGLSSKVSNKENLHATSKRLTKSPHLSKSTLTQNDHDNDDDSTNNNNNKSNNDYDDNNNNNNNDDDDYDDDDESRPLIEPLPLISSRSQSLSEITPGPHSRKSTVSSTRAADIPSDDEGYSEDDSDDDGNSSYTMENGGENDGDEDLNAIYGPYIQKLHMLQRSISIELASLNELLQDKQQHDEYWNTVNTSIETVSEFFDKLNRLTSQREKRMIAQMTKQRDVNNVWIQSVKDLEMELVDKDEKLVALDKERKNLKKMLQKKLNNQPQVETEANEESDDANSMIKGSQESTNTLEEIVKFIEATKESDEDSDADEFFDAEEAASDKKANDSEDLTTNKETPANAKPQEEAPEDESLIVISSPQVEKKNQLLKEGSFVGYEDPVRTKLALDEDNRPKIGLWSVLKSMVGQDLTKLTLPVSFNEPTSLLQRVSEDIEYSHILDQAATFEDSSLRMLYVAAFTASMYASTTNRVSKPFNPLLGETFEYARTDGQYRFFTEQVSHHPPISATWTESPKWDFYGECNVDSSFNGRTFAVQHLGLWYITIRPDHNISVPEETYSWKKPNNTVIGILMGKPQVDNSGDVKVTNHTTGDYCMLHYKAHGWTSAGAYEVRGEVFNKDDKKLWVLGGHWNDSIYGKKVTARGGELTLDRIKTANSATGGPKLDGSKFLIWKANERPSVPFNLTSFALTLNALPPHLIPYLAPTDSRLRPDQRAMENGEYDKAAAEKHRVEVKQRAAKKEREQKGEEYRPKWFVQEEHPVTKSLYWKFNGEYWNKRKNHDFKDCADIF
B6: YBR130C (protein, UniProt P38272 1-425, looked up)
SWI5-dependent HO expression …: MSDQDNTQTSSSKLAPHHNIFMANLESSPTKDRNTSSQNASSSRVIESLHDQIDMLTKTNLQLTTQSQNLLSKLELAQSKESKLLENLNLLKNENENLNSIFERKNKKLKELEKDYSELSNRYNEQKEKMDQLSKLAKNSSAIEQSCSEKLQNMEVNYNSLLESQNLYRDHYSDEISKLNEKIGLLELELSNQNLNYGSDTSSNSDIELNLNKFNDSVKDLKSLETEKDSKLSKIITHSLDELNLQSWLNLYQTNENLISTFAEKMDLKDVLKRNDEKISNKGAVVQTLKKNVQTQVESNNADALSSNNAQDMLPIKMVKLRKTPNTNDSSSNGNSSNNKRRSFYTASPLLSSGSIPKSASPVLPGVKRTASVRKPSSSSSKTNVTHNNDPSTSPTISVPPGVTRTVSSTHKKKGNSMVVHGAQS
B7: YGL099W (protein, UniProt P53145 1-640, looked up)
Large subunit GTPase 1: MPPKEAPKKWKAPKGPKPTHRKNKNKLELGRAIKYARQKENAIEYLPDGEMRFTTDKHEANWVKLRSVTQESALDEFLSTAALADKDFTADRHSNVKIIRMDSGNDSATSQGFSMTNEQRGNLNAKQRALAKDLIVPRRPEWNEGMSKFQLDRQEKEAFLEWRRKLAHLQESNEDLLLTPFERNIEVWKQLWRVVERSDLVVQIVDARNPLLFRSVDLERYVKESDDRKANLLLVNKADLLTKKQRIAWAKYFISKNISFTFYSALRANQLLEKQKEMGEDYREQDFEEADKEGFDADEKVMEKVKILSIDQLEELFLSKAPNEPLLPPLPGQPPLINIGLVGYPNVGKSSTINSLVGAKKVSVSSTPGKTKHFQTIKLSDSVMLCDCPGLVFPNFAYNKGELVCNGVLPIDQLRDYIGPAGLVAERIPKYYIEAIYGIHIQTKSRDEGGNGDIPTAQELLVAYARARGYMTQGYGSADEPRASRYILKDYVNGKLLYVNPPPHLEDDTPYTREECEEFNKDLYVFDRLPDTRKEQVQNAAKAKGIDIVDLARDLNQLTFSAHTGGDTQKEAKSVTHGGKQAALYNAAEDLDRDFFKMNNVEGRLSTPFHKVQNSSAGKRHNKKNKSKNAKSKVFSIENN
B8: YNL287W (protein, UniProt P32074 1-935, looked up)
Coatomer subunit gamma: MSAHTYKKFENSTSGDLPDKMTIYQDCMNTFNESPVNSKRCRLLISRLLRLLAQGETFPQNEATALFFSISKLFQHQNDPLRQAVYLAIKELSGISEDVLMATSSIMKDVQNGSDLIKPDAIRSLTYVLDESTAFSAERLLKSAVVSRHPSISSAALCTSYHLLPISEVTIRRFTNETQEAVLDLKQFPNQHGNSEYYPNSTYISQYHALGLLYQLKKTDKMALLKLVRHFSENNSMKNQLAKVELVKIVNDLIYRDPQLFSQFRPLLSDWLSNKFESVQLETAKLITSFATRNSRLVAPELYAAAISALQSLLTVPRVSSRFAALRILNRISMVSPEKIVVCNPELESLINDSNRNISTYAITTLLKTGTSKNISSLISTITNFIHDVSDDFKIIIIDAVRTLSLNFPQEWKSILNFLIDVLKNSEGGFKFKNSIVEALIDIVSFVPQSKELALENLCDFIEDCEFNEILVRILHLLGKEGPSAPNPSLYVRHIYNRVVLENSIIRSAAVVALSKFALTKNDPTLYESIISLLKRIANDKDDEVRDRATIALEFIDSARNKDDVIAQNLIESKYFYDIPSLESKLSSYISSNTDSFATAFDVNQVRKFTEDEMKAINLKRKQEQIFNQKSETTLDTTPEAESVPEKRADANSFAGPNLDDHQEDLLATKYADELLSIEQIKPFGQLVNSSRAISLTEPEAEFVVRGVKHLFKDNVVLQFNITNTLTDIALDNVSVVCTPEISDEAELEELFTLQVDRLLPSEEAACYVAFKKLDEIVMEGFLNNLTFTTKEINPDTNEPFDGDEGFQDEYEIDSIFLNAGDYVKSSFTGNFSATFDELPCEEVAVFNIQEDLSIQEVVDKIILNSSCLPVESTQFAPSDSNSHTLKLFGKSALTGSKVALQIKMIKSSKGLALKVHGKGEDSLLCSDLVNGLMQ
B9: YDL160C (protein, UniProt P39517 1-506, looked up)
ATP-dependent RNA helicase …: MGSINNNFNTNNNSNTDLDRDWKTALNIPKKDTRPQTDDVLNTKGNTFEDFYLKRELLMGIFEAGFEKPSPIQEEAIPVAITGRDILARAKNGTGKTAAFVIPTLEKVKPKLNKIQALIMVPTRELALQTSQVVRTLGKHCGISCMVTTGGTNLRDDILRLNETVHILVGTPGRVLDLASRKVADLSDCSLFIMDEADKMLSRDFKTIIEQILSFLPPTHQSLLFSATFPLTVKEFMVKHLHKPYEINLMEELTLKGITQYYAFVEERQKLHCLNTLFSKLQINQAIIFCNSTNRVELLAKKITDLGYSCYYSHARMKQQERNKVFHEFRQGKVRTLVCSDLLTRGIDIQAVNVVINFDFPKTAETYLHRIGRSGRFGHLGLAINLINWNDRFNLYKIEQELGTEIAAIPATIDKSLYVAENDETVPVPFPIEQQSYHQQAIPQQQLPSQQQFAIPPQQHHPQFMVPPSHQQQQAYPPPQMPSQQGYPPQQEHFMAMPPGQSQPQY

Test system: ABP1
Assay: DHFR-PCA on solid medium, bait ABP1 (Fig. 1B)
Format: cell-based, Saccharomyces cerevisiae
Settings: bait ABP1, label = prey; 2-4 replicates
Excerpt: Supplement 41467_2021_21873_MOESM8_ESM.xlsx, sheet "Fig1B" | column: medsize; medrep; Ratio; Score

| Molecule | medrep (log2 median colony size normalized to plate background, PCA score) |
| --- | --- |
| B1 | 3.262 |
| B2 | 1.414 |
| B3 | 1.857 |
| B4 | 1.804 |
| B5 | 1.62 |
| B6 | 2.63 |
| B7 | 1.414 |
| B8 | 2.55 |
| B9 | 1.807 |

Same assay, conditions: bait ABP1, label = prey; only significant differences showed; PPIs completely lost have a ratio of 0.1 and the gained PPIs 2.5

| Molecule | Ratio (SH3-deleted/WT medrep) |
| --- | --- |
| B1 | 0.1 |
| B2 | 2.5 |
| B3 | 0.1 |
| B4 | 0.1 |
| B5 | 2.5 |
| B7 | 0.1 |
| B8 | 1.797 |
| B9 | 2.5 |
